# Key:
# [1] = human, in vivo
# Description: (§1) Lysozyme is rich in Trp. […] A product data sheet is attached as FIG. 6. Study Procedures
# (§2) Washout periods between treatments were at least three days. […] The study was composed of four visits.
# (§3) They then ingested one of the experimental drinks.
# (§4) Fluorescence-based detection is employed.
# (§5) • For Trp and LNAA determination in the blood: Approx. […] After mixing, 2 μl was injected on the column. Statistical Considerations Descriptive Statistics
# [2] = Clinical trial: plasma Trp/LNAA ratio kinetics after a single drink; type: in vivo, humans
# Description: as §1, §2, §3, §4, §5
# Plasma samples from each time point have been analysed for levels of Trp and LNAA, i.e. the sum of Val, Ile, Leu, Tyr, and Phe. The resulting Trp/LNAA ratio was plotted against time post consumption of the intervention product.
substance,measurement,setting,value
intact lysozyme: A hen egg-derived protein rich in Trp; naturally occurring food protein that has not been altered,Cysteine AUC (average),[1],999.7
same,Cystine AUC (average),[1],10726.7
same,Glutathione AUC (average),[1],255.7
same,Shape of the plasma Trp/LNAA ratio increase over time (in words),"[2]; FIG. 2, comparison of the three treatments",much slower increase
same,"dAUC (baseline-corrected AUC of Trp/LNAA ratios), mean","[2]; plasma, 0-240 min after single drink, healthy volunteers, baseline AUC subtracted",7.3

# Source: patent US10653613B2, “Compositions comprising lysozyme hydrolysate for use in keratin-containing tissue” (DSM IP ASSETS B.V., priority 2013, dated 2020)
